Target: Protein G (Protein G UltraLink resin, Pierce) (group G streptococci) (UniProt P19909)
Test: depletion of 100 µg IgG by Protein G resin beads (10 µL suspension); supernatant read by SDS-PAGE band pixels

Q: With IgG (antibody) as the substance, how does the remaining antibody amount (unbound IgG left in supernatant) read?
A: The remaining antibody amount (unbound IgG left in supernatant) was 3%.

— US20180051053A1
